Biological target: CPR-DA: human cytochrome P450 reductase doubly labelled with Cy5 (donor) and Alexa 750 (acceptor) (human) (UniProt P16435)
Chain of UniProt P16435 (P16435 61-677): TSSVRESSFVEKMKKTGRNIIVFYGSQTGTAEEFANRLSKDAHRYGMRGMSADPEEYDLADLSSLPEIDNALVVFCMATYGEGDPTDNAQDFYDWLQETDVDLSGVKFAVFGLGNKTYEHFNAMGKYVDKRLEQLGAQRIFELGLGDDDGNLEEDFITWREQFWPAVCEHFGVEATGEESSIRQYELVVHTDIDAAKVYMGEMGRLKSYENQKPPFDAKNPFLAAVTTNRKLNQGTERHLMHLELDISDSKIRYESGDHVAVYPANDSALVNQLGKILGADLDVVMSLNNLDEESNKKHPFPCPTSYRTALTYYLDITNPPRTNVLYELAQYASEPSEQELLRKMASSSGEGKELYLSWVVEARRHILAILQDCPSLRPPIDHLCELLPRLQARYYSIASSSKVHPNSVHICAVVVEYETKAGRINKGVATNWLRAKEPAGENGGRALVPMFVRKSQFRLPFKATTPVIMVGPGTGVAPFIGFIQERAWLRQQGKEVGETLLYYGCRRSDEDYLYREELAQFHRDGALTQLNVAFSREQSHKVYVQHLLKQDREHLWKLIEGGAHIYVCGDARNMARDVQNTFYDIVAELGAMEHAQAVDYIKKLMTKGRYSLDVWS

second-order rate constant of ferric cyt c reduction by equimolar NADPH-reduced CPR-DA, first kinetic phase (UV-Vis double-mixing stopped-flow): 1.01e+06 M⁻¹ s⁻¹ | second-order rate constant of ferric cyt c reduction by equimolar NADPH-reduced CPR-DA, second kinetic phase (UV-Vis double-mixing stopped-flow): 340000 M⁻¹ s⁻¹
Substance: bovine heart cytochrome c (from UniProt P62894 1-105) (natural protein)
